In article PMC7935935, “Conservation of the glycogen metabolism pathway underlines a pivotal function of storage polysaccharides in Chlamydiae” (Communications Biology, 2021):

Columns and labels:
GlgE-WC = molecular target: T1, GlgE-WC (Waddlia chondrophila, UniProt D6YT22); assay: maltosyl transfer, FACE capillary electrophoresis and Pi release; format: biochemical; settings: 30 °C
T1 sequence (D6YT22 1-649): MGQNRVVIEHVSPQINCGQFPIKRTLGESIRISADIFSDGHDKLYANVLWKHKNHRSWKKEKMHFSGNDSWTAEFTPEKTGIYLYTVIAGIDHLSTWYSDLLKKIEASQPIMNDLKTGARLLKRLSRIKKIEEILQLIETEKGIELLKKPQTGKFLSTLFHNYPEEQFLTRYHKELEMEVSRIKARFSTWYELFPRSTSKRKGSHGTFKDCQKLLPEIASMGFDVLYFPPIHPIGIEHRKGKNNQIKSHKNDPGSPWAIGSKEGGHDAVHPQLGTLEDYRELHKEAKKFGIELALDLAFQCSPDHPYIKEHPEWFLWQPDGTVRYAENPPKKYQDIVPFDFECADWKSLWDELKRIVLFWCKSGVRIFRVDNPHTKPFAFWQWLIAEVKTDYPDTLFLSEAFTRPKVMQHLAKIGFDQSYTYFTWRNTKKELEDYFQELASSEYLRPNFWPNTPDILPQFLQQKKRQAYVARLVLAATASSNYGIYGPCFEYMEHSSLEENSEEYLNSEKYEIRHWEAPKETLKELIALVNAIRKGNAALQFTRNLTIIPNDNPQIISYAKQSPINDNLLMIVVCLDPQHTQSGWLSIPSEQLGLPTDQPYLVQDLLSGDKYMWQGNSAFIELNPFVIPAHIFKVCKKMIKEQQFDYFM

[1] = tested on: O=P(O)(O)O[C@H]1O[C@H](CO)[C@@H](O[C@H]2O[C@H](CO)[C@@H](O)[C@H](O)[C@H]2O)[C@H](O)[C@H]1O; assay: purified protein; settings: 10 mM maltoheptaose as acceptor per Fig. 5 legend (b24 text assigns the acceptors the other way round), pH 6.8, 30 °C, positive cooperativity
GlgA–GlgB-WC = molecular target: T2, GlgA–GlgB-WC (Waddlia chondrophila, UniProt D6YUJ8); assay: […]-glucosyl incorporation into glycogen; zymogram; format: cell-based; settings: glycogen as acceptor, 30 °C; glycogen synthase domain; labelled compound
T2 construct: gene wcw_0437; natural GlgA-GlgB gene fusion, his-tagged, modified pET15b, E. coli BW25113 delta-glgA; crude extract on zymogram
T2 sequence (D6YUJ8 1-1463): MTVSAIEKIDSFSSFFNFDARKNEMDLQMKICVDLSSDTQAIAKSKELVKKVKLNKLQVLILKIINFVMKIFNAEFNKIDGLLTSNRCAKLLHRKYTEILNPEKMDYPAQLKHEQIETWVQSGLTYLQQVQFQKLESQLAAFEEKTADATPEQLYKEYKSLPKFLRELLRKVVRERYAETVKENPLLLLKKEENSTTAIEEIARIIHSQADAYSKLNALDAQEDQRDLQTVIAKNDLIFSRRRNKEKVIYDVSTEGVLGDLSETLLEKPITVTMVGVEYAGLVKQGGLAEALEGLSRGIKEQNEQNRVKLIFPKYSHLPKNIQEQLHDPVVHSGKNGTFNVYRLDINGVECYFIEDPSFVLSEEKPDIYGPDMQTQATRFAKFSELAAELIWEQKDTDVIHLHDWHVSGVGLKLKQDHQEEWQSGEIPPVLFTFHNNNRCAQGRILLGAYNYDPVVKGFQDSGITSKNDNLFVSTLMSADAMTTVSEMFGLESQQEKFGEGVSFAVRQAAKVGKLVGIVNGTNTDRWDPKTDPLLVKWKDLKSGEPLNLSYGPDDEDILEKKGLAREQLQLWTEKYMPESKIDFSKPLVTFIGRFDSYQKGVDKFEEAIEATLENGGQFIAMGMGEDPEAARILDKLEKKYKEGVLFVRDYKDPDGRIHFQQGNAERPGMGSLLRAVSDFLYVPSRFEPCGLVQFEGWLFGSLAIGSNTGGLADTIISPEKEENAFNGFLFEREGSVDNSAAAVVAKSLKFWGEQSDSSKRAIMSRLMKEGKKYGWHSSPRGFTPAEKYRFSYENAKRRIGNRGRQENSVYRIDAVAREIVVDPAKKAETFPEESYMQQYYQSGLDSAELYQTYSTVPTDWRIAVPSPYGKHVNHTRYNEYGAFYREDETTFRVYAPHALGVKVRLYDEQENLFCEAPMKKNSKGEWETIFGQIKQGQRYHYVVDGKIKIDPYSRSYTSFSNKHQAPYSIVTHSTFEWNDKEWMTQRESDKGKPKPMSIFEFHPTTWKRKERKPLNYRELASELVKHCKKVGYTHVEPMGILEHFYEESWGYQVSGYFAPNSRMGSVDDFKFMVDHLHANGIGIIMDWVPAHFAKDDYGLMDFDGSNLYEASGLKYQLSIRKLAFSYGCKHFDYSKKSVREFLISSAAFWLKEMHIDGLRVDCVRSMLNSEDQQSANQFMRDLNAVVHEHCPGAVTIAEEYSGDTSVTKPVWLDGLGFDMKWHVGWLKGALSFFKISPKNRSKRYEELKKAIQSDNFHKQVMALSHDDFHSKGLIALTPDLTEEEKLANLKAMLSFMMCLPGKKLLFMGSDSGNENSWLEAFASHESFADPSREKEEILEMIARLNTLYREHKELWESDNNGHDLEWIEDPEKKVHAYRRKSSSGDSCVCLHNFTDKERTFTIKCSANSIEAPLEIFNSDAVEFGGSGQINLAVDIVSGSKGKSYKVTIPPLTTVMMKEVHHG

[2] = tested on: OC[C@H]1O[C@H](O[C@H]2O[C@H](CO)[C@@H](O)[C@H](O)[C@H]2O)[C@H](O)[C@@H](O)[C@@H]1O; assay: purified protein; settings: TreS domain, 1 mM MnCl2, no ATP, 125 mM imidazole pH 8, 150 mM NaCl, 30 °C
[3] = molecular target: bifunctional TreS-Mak of Estrella lausannensis (trehalose synthase fused to maltokinase) (Estrella lausannensis); assay: SEC; Superose 6 10/300 GL, PBS (10 mM orthophosphate, 140 mM NaCl, pH 7.4), 4 °C, 0.3 mL/min; apparent molecular weight against standard proteins
[4] = molecular target: the molecule itself; assay: as above

## O=P(O)(O)O[C@H]1O[C@H](CO)[C@@H](O[C@H]2O[C@H](CO)[C@@H](O)[C@H](O)[C@H]2O)[C@H](O)[C@H]1O [M1P, maltose-1-phosphate]
GlgE-WC; 5 mM malto-oligosaccharide acceptors, 1.6 mM M1P
  maltosyl transfer, FACE capillary electrophoresis and Pi release: both GlgE activities enable the transfer the maltosyl moiety of M1P onto the glucan primer

## GlgE-EL (Estrella lausannensis)
[1]
  K0.5: 0.33 ± 0.02 mM

## OC[C@H]1O[C@H](O[C@H]2[C@H](O)[C@@H](O)[C@@H](O[C@H]3[C@H](O)[C@@H](O)[C@@H](O[C@H]4[C@H](O)[C@@H](O)[C@@H](O[C@H]5[C@H](O)[C@@H](O)[C@@H](O[C@H]6[C@H](O)[C@@H](O)[C@@H](O[C@H]7[C@H](O)[C@@H](O)C(O)O[C@@H]7CO)O[C@@H]6CO)O[C@@H]5CO)O[C@@H]4CO)O[C@@H]3CO)O[C@@H]2CO)[C@H](O)[C@@H](O)[C@@H]1O (stereo partly shown) [DP7, maltoheptaose]
GlgE-WC; acceptor with 1.6 mM M1P, also disproportionated without M1P
  maltosyl transfer, FACE capillary electrophoresis and Pi release: GlgE activities harbor an α-1,4-glucanotransferase activity exclusively with glucans composed of six or seven

## Nc1ncnc2c1ncn2[C@@H]1O[C@H](COP(=O)(O)OP(=O)(O)O[C@H]2O[C@H](CO)[C@@H](O)[C@H](O)[C@H]2O)[C@@H](O)[C@H]1O [ADP-glc, ADP-glucose]
GlgA–GlgB-WC
  14C-glucosyl incorporation into glycogen; zymogram: is functional but highly specific for ADP-glucose

## TreS-Mak of Estrella lausannensis (Estrella lausannensis)
[2]
  Km: 42.3 ± 2.7 mM

## bifunctional TreS-Mak of Estrella lausannensis (trehalose synthase fused to maltokinase) (enzyme)
[3]
  stoichiometry N: 2

B1: GlgE of Estrella lausannensis (maltosyl-1-phosphate transferase; α-maltose-1-phosphate: 1,4-α-D-glucan 4-α-D-maltosyltransferase) (enzyme, UniProt A0A0H5DRC6 1-675, looked up)
chain: MSVSAAEKRQLLTQVKASGSMYTNTLHSIVIQNISPKPEPFGPAKRVLLEQVEVEADIFTDPHTKLEADLIVKAPGLRKTTRIPFHPLVNDRFKAVFVPDTPGTYSFFVEAWVNPAALWQEDLRKKQEARLDLTVDLQIGAALLVEVADLLPPEESVKLLQIAKKLREQKGAEAVAFDPEIARLGRLARPKSRQGVCSQEQEVFVTRKKALFSTWYELFPRSCSGTMRHGTFNDVVAKLPRISRMGFDVLYLPPIHPIGKTKRKGKNNALTALPDDPGSPWAVGSHEGGHDAIQRELGTLADFERLVKEAESLGIEIALDIALQCSPDHPYLKEHPEWFLKRPDGTYQYAENPPKKYEDIIPFHFTEDNKDTLFREILRIFLFWMKRGVRIFRVDNPHTKPFALWEYVIGEVRKVDSGVIFLAEAFTRPKIMHHLARIGFDQSYTYFTWRNTKWELTEYLTELTKTEARNYLRPNFFVNTPDILPESLQWGGRAAFLTRLILAATLSSSYGIYGPAFEQMLSEAVPGKEDYIDSEKYEIKPWDFEKKGTISETIEIVNRIRKENPALQATGNLEFYATDNDYLLAYGKQGPQGESLLIVVNLDHYHTQSGYVTLPLMHLGIQEKEPYLVDDLLSGERYIWEGERNYIQLSPHLVPAHIFRIRPKMLRENNFDYFI
notes: GlgE (maltosyl-1-phosphate transferase) of Estrella lausannensis, glgE gene amplified from genomic DNA; monomer of 75-76 kD; Cloned in pET15b; also called GlgE-EL; source: E. coli Rosetta (DE3)
[4]
  stoichiometry N: 2
